From the Human Domainome abundance scans (Beltran et al. 2025)

B1: Protein C-ets-1, residues 55 to 135; numbered along this chain, P14921 (parent)
chain: GFTKEQQRLGIPKDPRQWTETHVRDWVMWAVNEFSLKGVDFQKFCMNGAALCALGKDCFLELAPDFVGDILWEHLEILQKE

Variants of: B1
Test: abundance fitness (aPCA) (normalised: wild type 0, dead -1); higher = more abundant; growth selection in yeast, the domain comes from the species named
Conditions: Homo sapiens

Abundance fitness of substitutions, site by site:
I77: R -0.025, V 0.029, W -0.033, F -0.013, K 0.052, S 0.065, E -0.031, Y -0.043, M -0.009, N 0.17, Q -0.029, L 0.053, G 0.027, C -0.021, P -0.346, A 0.008, T 0.01, H 0.076, D -0.033
Q79: H -0.178
V67: G -0.018, N -0.242, A -0.062, D -0.138, Y -0.319, T -0.057, S -0.002, L -0.256, Q -0.069, F -0.267, W -0.414, I -0.159, R -0.167, E 0.081, H -0.284, K -0.305, C -0.04
D65: E 0.01, S 0.006, I -0.008, K -0.01, N 0.084, M -0.019, W -0.311, G 0.024, A 0.004, H -0.09, C -0.057, Y -0.04, V -0.043, T 0.027, F -0.221, P 0.076, L -0.09
L62: C -0.265, K -0.195, N -0.419, G -0.461, V -0.34, D -0.968, E -0.655, Y -0.141, R -0.103, F -0.298, Q -0.3, S -0.401, P -0.954, I -0.049, H -0.438
P64: E -0.239, Q -0.288, W -0.938, N -0.296, V -0.836, L -0.861, T -0.194, H -0.34, M -1.06, I -0.891, F -0.896, Y -0.728, K -0.6, G 0.032, S -0.202
L75: A -0.921, K -0.466, V -0.721, G -0.935, Y -0.62, S -0.796, R -0.863, E -0.952, H -0.914, N -0.697, D -0.91, C -0.964, I -0.21, M -0.169, W -0.097, P -0.898, T -1.02
F66: A 0.02, I 0.021, H 0.095, L -0.022, E -0.002, P 0.048, D 0.051, R 0.033, C -0.031, N 0.073, K 0.053, T 0.037, S 0.036, M -0.032
E73: C -0.252, H -0.315, Q -0.032, K 0.004, M -0.277, R -0.088, F -0.251, I -0.651, P -0.898, Y -0.319, W -0.142, T -0.19, V -0.546, G -0.08, L -0.246, D 0.04, A -0.079
K80: N 0.029
L78: Q -0.199, A -0.299, N -0.775, K -0.649, G -0.566, I -0.098, T -0.289, H -0.553, V -0.097, P -0.513, C -0.16, F -0.39, S -0.508, M -0.116, Y -0.463, R -0.583, E -0.5, D -0.486, W -0.244
D69: A -0.031, C -0.167, N -0.002, M -0.055, F -0.301, I -0.038, R -0.09, S -0.053, K -0.057, W -0.262, E -0.035, T -0.134, L -0.057, Q -0.03, G -0.059
